Values joined by “and” are separate entries in the source; they are usually repeats but may differ in a detail not shown here. Equal values may be shown once.
How the values were obtained:
[1] = Sodium fluorescein leakage into CSF after BCCAO (BBB integrity); type: in vivo, mouse; conditions: individual animals; for CSF/blood fluorescent: 60 min after injection
Procedure: WT and Ager^−/− male mice (8 to 12-weeks-old and weighing 20–30 g) were used for the experiments. The animals were anaesthetised with 2.0% halothane and maintained with 0.5% halothane through a facemask. Brain ischaemia was induced via bilateral occlusion of the common carotid arteries (BCCAO) for 15 min using microvascular clips as described previously. Laser-Doppler flowmetry was used to measure cerebral cortical microperfusion (3 mm lateral to bregma). […] Rectal temperature was maintained at 36.5–37.5 °C by using a heat lamp and a blanket until the mice were completely alert. The control animals underwent a sham-operation that was identical with the exception of the occlusion. To quantify accumulative BBB leakages, 200 µl of sodium fluorescein (Sigma-Aldrich) at a concentration of 6 mg/ml in PBS was injected via the venous sinus of retro-orbital in the mice. […] Sixty minutes later, the CSF and blood were collected according to the protocol for sampling of CSF and blood from mice[80]. The fluorescence of CSF and serum were measured at 460 nm at an excitation wavelength of 355 nm by using a Fluoroscan Ascent FL luminometer (Labsystems. Wilmington, DE, USA). Results are presented as relative fluorescence units (CSF value/serum value) (%).

human esRAGE = human esRAGE (Homo sapiens, UniProt Q15109); test: Plate competition assay of oxytocin-RAGE complex formation by RAGE ligands and RAGE domains; type: binding; conditions: esRAGE preincubated with ligand, added 30 min to wells with immobilised oxytocin, HRP-anti-RAGE, n = 3
Procedure: RAGE ligands were S100B (Sigma-Aldrich, St. Louis, MO, USA)[30], AGE-BSA (glyceraldehyde-derived AGE-BSA)[27],[32],[41], amyloid β 1-42 (Sigma-Aldrich), and high-mobility group box 1 (HMGB1, Sigma-Aldrich)[42].
Supplementary Figure 3. (a–d) Plate competition assays. Preincubation mixtures of esRAGE (1 mg/ml) with indicated concentrations of S100B (a),AGE-BSA (AGE) (b), amyloid b (c),or high-mobility group box 1 (HMGB1) (d) were added into wells for 30 min on which […]
The formation of oxytocin–RAGE complexes was detected with horseradish peroxidase (HRP)-conjugated anti-RAGE antibody (n = 3). All […]
and C2 domains (30 mg/ml) were used with this system (n = 3). The formation of oxytocin– RAGE complexes was detected with horseradish peroxidase (HRP)-conjugated anti-RAGE antibody (n = 3). *P < 0.05. Allgraphs show mean ± SEM.
(1 picture or pasted object on this page, not shown here)

[2] = target: human endogenous soluble RAGE (esRAGE), recombinant (human); test: SPR; human esRAGE amine-coupled to a CM5 chip (~5000 RU), oxytocin flowed over; BIAcore 2000; 10 mM HEPES pH 7.4, 0.15 M NaCl, 3 mM EDTA, 0.005% surfactant P-20; 25 °C, 20 μl/min; apparent KD
[3] = [13C,15N]oxytocin in CSF after subcutaneous injection, LC-MS/MS; type: in vivo, mouse
Procedure: (§1) High MW proteins in diluted mouse plasma were precipitated with 2% TCA; supernatants obtained after centrifugation were analysed by LC-MS/MS. Mouse CSF samples diluted 1:5 with PBS (25 μl) were analysed directly. […] The eluting 1.0 ml fractions (Fig. 1h) were analysed by LC-MS/MS. The 25 μl samples were separated using a ZORBAX 300SB-C8 column (2.1 × 150 mm, 5 μm; CA, USA) eluted with a linear gradient of 0.1% (v/v) formic acid and acetonitrile (0–30%) at 0.3 ml/min and 50 °C.

[4] = tested on: monkey brain capillary endothelial cells; test: In vitro blood-brain barrier (BBB) model (MBT-24H), transport between luminal and abluminal chambers, control or RAGE shRNA knockdown; conditions: 1.0 ng/ml in luminal chamber, 3 h, control vs RAGE knockdown, ELISA, n = 4
Procedure: EC, monkey brain capillary endothelial cells; Peri, rat brain pericytes; Astro, rat astrocytes. […] The endothelial cells used in the upper chamber in a were treated with RAGE shRNA (knockdown, KD) or control (C or CNT) vectors to assess the effects of RAGE knockdown. […] Values are mean ± SEM
For the in vitro BBB model (MBT-24H, PharmaCo-Cell Co., Nagasaki, Japan), rat brain pericytes (1.5 × 10^4 cells/cm^2) and rat astrocytes (1.5 × 10^4 cells/cm^2) were seeded on the bottom of the collagen-coated polyester membranes of Transwell inserts (Corning Life Sciences, MA, USA). After 16 h the cells firmly adherent, monkey brain vascular endothelial cells (1.5 × 10^5 cells/cm^2) were then seeded on the upper side of the inserts in 24-well culture plates. The in vitro BBB models were established within 4 days of seeding the cells according to the manufacturer’s instructions. Trans-endothelial electrical resistance (TEER), which primarily reflects the flux of sodium ions through the cell layers in the culture conditions, was measured with an epithelial-volt-ohm metre and an Endohm-6 chamber electrodes (World Precision Instruments, Sarasota, FL, USA). The TEERs of the coated, cell-free filters were subtracted from the measured TEER values of the models and shown as Ω cm^2. The apparent permeability constants (Papp) between luminal and abluminal chambers were calculated from the distribution ratios. Endothelial expression was silenced using RAGE shRNA and the pSilencer 3.0-H1 vector (Ambion, Austin, TX, USA)[41]. […]

soluble RAGE = target: T1, soluble RAGE (Homo sapiens, UniProt Q15109); test: Gel permeation, anti-RAGE and esRAGE affinity chromatography of human serum with EIA and LC-MS/MS; type: binding; conditions: 50 ml human serum
T1 construct: from tissue; host or cells: human serum
Procedure: Polypeptides were separated using a Superdex 75 pg HiLoad 26/600 column (GE Healthcare Japan, Tokyo) eluted at 1.0 ml/min with 5 mM ammonium acetate pH 7.8. […] Anti-RAGE monoclonal antibody (1.0 mg) or purified esRAGE (0.5 mg) were coupled to NHS-activated HiTrap (GE Healthcare). Sera samples (50 ml) from healthy consenting adults were applied to the HiTrap-anti-RAGE column equilibrated with 50 mM Tris–HCl (pH 7.4) and 0.15 M NaCl. Alternatively, the low molecular weight (<3000, Amicon Ultracel3K) fraction of human serum (50 ml) was applied to the HiTrap-esRAGE column previously equilibrated with phosphate-buffered saline (PBS). After washing the bound proteins were eluted with 100 mM glycine-HCl buffer (pH 2.5) for HiTrap-anti-RAGE or 10 mM Tris–HCl (pH 7.4) and 2.0 M NaCl for HiTrap-esRAGE and the eluates were analysed by EIA or LC-MS/MS and Western blotting.
as §1
Supplementary Figure 1. […]

[5] = target: oxytocin receptor (high affinity form) (UniProt P30559); conditions: cited from earlier work
oxytocin receptor = oxytocin receptor (UniProt P30559); conditions: cited from earlier work
oxytocin receptor, sequence (P30559 whole entry): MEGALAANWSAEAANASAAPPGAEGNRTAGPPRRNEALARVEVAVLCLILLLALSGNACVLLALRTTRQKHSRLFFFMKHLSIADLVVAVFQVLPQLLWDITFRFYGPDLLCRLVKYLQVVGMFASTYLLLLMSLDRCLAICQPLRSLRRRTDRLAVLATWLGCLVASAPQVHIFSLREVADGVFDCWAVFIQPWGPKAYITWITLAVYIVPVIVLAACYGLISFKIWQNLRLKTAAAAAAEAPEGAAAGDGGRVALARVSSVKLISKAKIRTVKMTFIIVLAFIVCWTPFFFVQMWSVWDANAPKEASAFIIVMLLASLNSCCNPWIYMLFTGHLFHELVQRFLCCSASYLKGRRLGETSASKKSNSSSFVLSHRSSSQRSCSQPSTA

human esRAGE, sequence (Q15109 23-347 isoform Q15109-3 limits assumed): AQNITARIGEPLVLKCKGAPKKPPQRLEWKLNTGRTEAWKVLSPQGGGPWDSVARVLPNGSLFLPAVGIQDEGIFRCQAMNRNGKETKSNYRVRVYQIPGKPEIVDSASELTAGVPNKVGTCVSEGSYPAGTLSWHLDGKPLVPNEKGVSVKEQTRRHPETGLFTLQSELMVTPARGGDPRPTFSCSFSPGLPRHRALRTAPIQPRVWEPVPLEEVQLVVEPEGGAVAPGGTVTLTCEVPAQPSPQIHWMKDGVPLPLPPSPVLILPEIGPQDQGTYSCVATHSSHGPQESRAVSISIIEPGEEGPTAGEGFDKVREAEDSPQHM
oxytocin, sequence (P01178 whole entry, looked up): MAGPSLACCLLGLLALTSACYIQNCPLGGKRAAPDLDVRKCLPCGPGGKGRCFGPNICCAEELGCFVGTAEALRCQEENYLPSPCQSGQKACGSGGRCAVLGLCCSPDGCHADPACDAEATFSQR
T1 sequence (Q15109 23-347 isoform Q15109-3): as the sequence (Q15109 23-347 isoform Q15109-3 limits assumed) above
oxytocin receptor (high affinity form), sequence (P30559 whole entry): as the sequence (P30559 whole entry) above
Oxytocin (synthetic), sequence (P01178 whole entry, looked up): as the sequence (P01178 whole entry, looked up) above

## O=C1OC2(c3ccc(O)cc3Oc3cc(O)ccc32)c2ccccc21 [fluorescein, sodium fluorescein]
[1]; Ager-/- BCCAO
  CSF/blood fluorescent: 0.0316% and 0.02179% and 0.01832% and 0.02493%
[1]; Ager-/- Sham
  CSF/blood fluorescent: 0.03456% and 0.01791% and 0.02565%
[1]; WT BCCAO
  CSF/blood fluorescent: 0.02918% and 0.03954% and 0.02602%
[1]; WT Sham, 200 μl of 6 mg/ml via retro-orbital venous sinus, 60 min
  CSF/blood fluorescent (relative fluorescence units, CSF value/serum value): 0.03234% and 0.009373% and 0.03651% and 0.03497% and 0.03069% and 0.01619%

## AGEs: glyceraldehyde-derived AGE-BSA, RAGE ligand
Human esRAGE
  inhibition of oxytocin binding to soluble RAGE by RAGE ligand: weakly or non-specifically inhibited

## HMGB1: high-mobility group box 1, RAGE ligand (Sigma-Aldrich)
Human esRAGE
  inhibition of oxytocin binding to soluble RAGE by RAGE ligand: weakly or non-specifically inhibited

## Oxytocin (synthetic) (from UniProt P01178 20-28) (peptide)
[2]
  Kd: 179 nM

## S100B: RAGE ligand S100B (Sigma-Aldrich)
Human esRAGE
  inhibition of oxytocin binding to soluble RAGE by RAGE ligand: weakly or non-specifically inhibited

## [^13C,^15N]oxytocin
[3]
  [13C,15N]oxytocin in CSF of Ager-/- male mice: undetectable

## amyloid β 1-42
Human esRAGE
  inhibition of oxytocin binding to soluble RAGE by RAGE ligand: weakly or non-specifically inhibited

## arginine-vasopressin
[4]
  transport by RAGE in the in vitro BBB assay system: did not transport
Soluble RAGE
  identification in material eluted from immobilised esRAGE (human serum): did not identify

## oxytocin (from UniProt P01178)
[5]
  Kd: 1 nM
Oxytocin receptor
  Kd: 100 nM
